Test results published in publication PMC7363131, “Interaction of the Streptomyces Wbl protein WhiD with the principal sigma factor σ^HrdB depends on the WhiD [4Fe-4S] cluster” (The Journal of Biological Chemistry, 2020).

Target: T1, S. venezuelae WhiD (SvWhiD), N-terminally His6-tagged, full length (S. venezuelae, [4Fe-4S] cluster bound as isolated (cluster loading ~90%); cluster-free (apo) form after exposure to O2; N-terminal methionine cleaved)
T1 construct: WhiD of Streptomyces venezuelae, Wbl family [4Fe-4S] protein; codon-optimized gene in pET28a (NdeI/HindIII); His-tagged protein 15,923 Da by LC-MS (predicted 15,924 Da without the N-terminal methionine); The holo ([4Fe-4S]) and apo (cluster-free) forms have the same polypeptide and are kept as one molecule; The assay and the 'only:' limit tell which form was tested; The preparation holds ~10% …
Experiment: native MS; nondenaturing ESI-MS titration; SvWhiD 3 μM with σ^HrdB4 0.75-21 μM, I151A FNR (3 μM) as internal standard, 250 mM ammonium acetate, pH 7.2; fractional saturation against free σ^HrdB4 fitted with a simple binding isotherm
Conditions: both partners purified

B1: Domain 4 of the S. venezuelae principal sigma factor σ^HrdB (σ^HrdB4), N-terminally His6-tagged (domain or fragment)
chain: PADAVSFTLLQEQLHSVLDTLSEREAGVVSMRFGLTDGQPKTLDEIGKVYGVTRERIRQIESKTMSKLRHPSRSQVLRDYLD
Kd: 740 nM
